Key:
[1] = molecular target: 2019 nCoV Spike Protein (RBD, His tag) (SARS-CoV-2, UniProt P0DTC2 329-520); assay: HT-SPR (Carterra LSA), mAb on chip, RBD (His tag) in solution, 25 C
[2] = molecular target: NCP-CoV (2019-nCoV) Spike Protein (S1 Subunit, His Tag) (SARS-CoV-2, UniProt P0DTC2 16-685); assay: HT-SPR (Carterra LSA), mAb on chip, S1 subunit (His tag) in solution, 25 C
[3] = molecular target: T1, SARS-CoV-2 spike protein (nCoV-S Spike Protein Trimer, NIH) (SARS-CoV-2, UniProt P0DTC2 14-1208); assay: HT-SPR (Carterra LSA), mAb on chip, SARS-CoV-2 spike protein titrated, 25 C
T1 construct: also called S protein

[4] = molecular target: T1, SARS-CoV-2 spike protein (nCoV-S Spike …); assay: HT-SPR (Carterra LSA), mAb on chip, SARS-CoV-2 spike protein titrated, 37 C
[5] = molecular target: T2, SARS-CoV-2 full length spike protein (wild type) (SARS-CoV-2, UniProt P0DTC2 14-1208); assay: multiplexed bead assay, flow cytometry; column D
T2 construct: also called SARS-CoV-2 spike; S protein

SARS-CoV-2 spike protein = SARS-CoV-2 spike protein (SARS-CoV-2, UniProt P0DTC2 14-1208); assay: HT-SPR, Carterra LSA; mAb coupled to chip, antigen injected; 1:1 fit
[6] = molecular target: T3, SARS-CoV-2 full length spike protein (wild type), expressed on the surface of transiently transfected CHO … (SARS-CoV-2, UniProt P0DTC2 14-1273); assay: flow cytometry, CHO cells with full-length WT SARS-CoV-2 spike
T3 construct: also called SARS-CoV-2 spike (S) protein; Wild-Type SARS-CoV-2

Binder | Kd [2] [nM] | Kd [3] [nM] | Kd [4] [nM] | further results
antibody 506 (antibody, V domains shown) VH: QITLKESGPTLVKPTQTLTLTCTFSGFSLSTSGVGVGWIRQPPGKALEWLALIYWDDDKRYSPSLKSRLTITKDTSKNQVVLTMTNMDPVDTATYYCAHHSLSSIFDYWGQGTLVTVSS VL: QSALTQPASVSGSPGQSITISCTGTSSDVGDYNYVSWYQQHPGKAPKLMIYEVSNRPSGVSNRFSGSKSGNTASLTISGLQAEDEADYYCSSYTSSSTVFGGGTKLTVLG | 90.9 | 0.0491 | 0.0693 | Kd [1]: 14.7 nM
antibody 292 (antibody, V domains shown) VH: EVQLVESGGGLIQPGGSLRLSCAASGFTVSSNYMSWVRQAPGKGLEWVSVIYSGGSTYYADSVKGRFTISRDNSKNTLYLQMNSLRAEDTAVYYCARDLQGGGGPWGQGTLVTVSS VL: AIQMTQSPSSLSASVGDRVTITCRASQGIRNDLGWYQQKPGKAPKLLIYAASSLQSGVPSRFSGSGSGTDFTLTISSLQPEDFATYYCLQDYNYPRTFGQGTKVEIKR | 118 | 0.0608 | 0.0786 | Kd [1]: 6.78 nM
antibody 481 (antibody, V domains shown) VH: EVQLVESGGGLIQPGGSLRLSCAASGFTVSSNYMSWVRQAPGKGLEWVSVIYSGGSTFYADSVKGRFTISRDNSKNTLYLQMNSLRAEDTAVYYCAREVAGTYDYWGQGTLVTVSS VL: DIQMTQSPSSVSASVGDRVTITCRASQGISSWLAWYQQKPGKAPKLLIYAASSLQSGVPSRFSGSGSGTDFTLTISSLQPEDFATYYCQQANSFPGGTFGPGTKVDIKR | 170 | 0.118 | 0.234 | Kd [1]: 14.1 nM
antibody 351 (antibody, V domains shown) VH: HVQLVESGGGVVQPGRSLRLSCAASGFISRNYGMEWVRQAPGQGLEWVAGIWYDGSKKYYADSVKGRFTISRDTSKNTLFLQMDSLRAEDTAVFYCATATKTFCGGDCPPGGMDVWGQGTTVTVST VL: SYVLTQPPSVSVAPGKTAWITCVGNNIESESVHWYQQRPGQAPVLVIYYDSDRPSGIPERFFGSNSGNTATLTISRVEAGDEADYYCQVWDSNSDLMVFGGGTKLTVL |  |  |  | binding result [5]: no binding
antibody 408 (antibody, V domains shown) VH: QVQLVESGGGVVQPGRSLRLSCAASGFTFSSYAMHWVRQAPGKGLEWVAVISYDGSNKYYADSVKGRFTISRDNSRNTLYLQMNSLRAEDTAVYYCAKGADTPHYSGYDFLSVGYYYYGMDVWGQGTTVTVSS VL: DIQMTQSPSSLSASVGDRVTITCRASQSISSYLNWYQQKPGKAPKLLIYAASSFQSGVPSRFSGSRSGTDFTLTISSLQPEDFATYYCQQSYSAPFTFGPGTKVDIKR | 171 |  |  | 
antibody 343 (antibody, V domains shown) VH: QVQLVESGGDVVQPGTSLRLSCAASGFTFNNYGFHWVRQAPGKGLEWVALISSDGASTHYADSVKGRFTISRDSSVNTLYLQMNSLSLEDTAVYYCATGHCGTTCYYFDYWGQGTLVSVSS VL: DIQVTQSPSYLSASVGDRVTITCRASQTISTFLQWYQQKVGKAPKLLIYAASTLQSGVPSRFSGSGSGTDFSLTISSLQPEDFATYYCQQSYSAPLSFGGGTKVEIK |  |  |  | binding result [5]: no binding
antibody 570 (antibody, V domains shown) VH: QVQLQESGPGLVKPSQTLSLTCTVSGGSISSGSYYWSWIRQPAGKGLEWIGRIYTSGSTNYNPSLKSRVTISVDTSKNQFSLKLSSVTAADTAVYYCAREGQWLYRFDYWGQGTLVTVSS VL: not shown |  |  |  | Kd (SARS-CoV-2 spike protein): 0.0454 nM; koff (SARS-CoV-2 spike protein): 1e-05 s⁻¹; kon (SARS-CoV-2 spike protein): 220000 M⁻¹ s⁻¹
antibody 574 (antibody, V domains shown) VH: QVQLVESGGGVVQPGRSLRLSCAASGFTFSSYAMHWVRQAPGKGLEWVAVISYDGSNKYYADSVKGRFTISRDNSKNTLYLQMNSLRAEDTAVYYCARTDRYYGSGAHFDYWGQGTLVTVSS VL: not shown |  |  |  | Kd (SARS-CoV-2 spike protein): 2.28 nM; koff (SARS-CoV-2 spike protein): 0.0003 s⁻¹; kon (SARS-CoV-2 spike protein): 132000 M⁻¹ s⁻¹
antibody 494 (antibody, V domains shown) VH: EVQLVESGGGLVQPGGSLRLSCAASGFTVSSNYMSWVRQAPGKGLEWVSVIYSGGSTFYADSVKGRFTISRDNSKNTLYLQMNSLRAEDTAVYYCARDSGDQLLDYWGQGTLVTVSS VL: DIQLTQSPSFLSASVGDRVTITCRASQGISSYLAWYQQKPGKAPKLLIYAASTLQSGVPSRFSGSGSGTEFTLTISSLQPEDFATYYCQQLNSYPPFTFGPGTKVDIKR | 189 | 0.0835 | 0.225 | Kd [1]: 13.5 nM
antibody 445 (antibody, V domains shown) VH: QVQLVQSGAEVKKPGASVKVSCKASGYTFTSYYMHWVRQAPGQGLEWMGIINPSGGSTSYAQKFQGRVTMTRDTSTSTVYMELSSLRSEDTAVYYCARDPTEVGATSEYYYYGMDVWGQGTTVTVSS VL: not shown | 613 |  |  | 
antibody 414 (antibody, V domains shown) VH: QVQLVQSGAEVKKPGASVKVSCKASGYTFTSYYMHWVRQAPGQGLEWMGIINPSGGSTSYAQKFQGRVTMTRDTSTSTVYMELSSLRSEDTAVYYCARDPPGRDFWSGYYFGAPDYYYYYGMDVWGQGTTVTVSS VL: DIQMTQSPSSLSASVGDRVTITCRASQGISNYLAWFQQKPGKAPKSLIYAASSLQSGVPSKFSGSGSGTDFTLTISSLQPEDFATYYCQQYNSYPYTFGQGTKLEIKR |  | 7.93 | 5.21 | 
antibody 562 (antibody, V domains shown) VH: QVQLVESGGGVVQPGRSLRLSCAASGFTFSSYAMHWVRQAPGKGLEWVAVISYDGSNKYYADSVKGRFTISRDNSKNTLYLQMNSLRAEDTAVYYCARASSGGYQGPFDPWGQGTLVTVSS VL: QSALTQPASVSGSPGQSITISCTGTSSDVGGYNYVSWYQQHPGKAPKLMIYDVSNRPSGVSNRFSGSKSGNTASLTISGLQAEDEADYYCSSYTSSSTLLYVFGTGTKVTVLG |  | 0.173 | 0.138 | 
antibody 332 (antibody, V domains shown) VH: QVTLRESGPALVKPTQTLTLTCTFSGFSLSTSGMCVSWIRQPPGKALEWLALIDWDDDKYYSTSLKTRLTISKDTSKNQVVLTMTNMDPVDTATYYCARIHDDILTGYHYVDYWGQGTLVTVSS VL: not shown |  |  |  | binding result [5]: no binding
antibody 419 (antibody, V domains shown) VH: QVQLVQSGAEVKKPGASVKVSCKASGYTFTSYYMHWVRQAPGQGLEWMGIINPSGGSTSYAQKFQGRVTMTRDTSTSTVYMELSSLRSEDTAVYYCARDWTQSSGYDYYYGLDVWGQGTTVTVSS VL: not shown | 235 |  |  | 
antibody 364 (antibody, V domains shown) VH: EVQLVESGGGLVQPGRSLRLSCTASGFTFGDYAMSWFRQAPGKGLEWVGFIRSKAYGGTTEYAASVKGRFTISRDDSKSIAYLQMNSLKTEDTAVYYCTRFGIDYDYIWGSYRYTTLFDYWGQGTLVTVSS VL: not shown |  | 7.61 | 0.0233 | 
antibody 328 (antibody, V domains shown) VH: QVQLQESGPGLVKPSGTLSLTCAVSGGSISSSNWWSWVRQPPGKGLEWIGEIYHSGSTNYNPSLKSRVTISVDNSKNQFSLKLSSVTAADTAVYYCARESVAAAGISYYYYGMDVWGQGTTVTVSS VL: DIQMTQSPSSLSASVGDRVTITCRASQGIRNDLGWYQQKPGKAPKRLIYAASSLQSGVPSRFSGSGSGTEFTLTVSGLQPEDFATYYCLQYNSSPLTFGGGTKVEIK |  |  |  | binding result [5]: no binding
antibody 462 (antibody, V domains shown) VH: QVQLVESGGGVVQPGRSLRLSCAASGFTFSSYGMHWVRQAPGKGLEWVAVIWYDGNNKYYADSVKGRFTISRDNSKNTLYLQMNSLRAEDTAVYYCAKDPTWFGELPSYYYYGMDVWGQGTTVTVSS VL: not shown |  | 7.58 | 4.62 | 
antibody 333 (antibody, V domains shown) VH: QVHLVESGGGVVLPGRSLRLSCSASQFIFSNYDMHWVRQSPGMGLEWVAGISSDGSDKYYIDSVRGRFTISRDNAKNTLFLQMNSLTTEDTAVYSCAKGGGKFGQYWGRGTLVTVSS VL: AIQMTQSPSSLSASVGDRVTITCRASQVIRNDLAWFQQKPGEAPNLLVYSASNLQSGVPSRFSGSGSGTDFTLTISSLQPEDFATYYCLQDYSYPYTFGQGTKLDMK |  |  |  | binding result [5]: no binding
antibody 434 (antibody, V domains shown) VH: QVQLVQSGAEVKKPGASVQVSCKASGYTFSDYYIFWVRQAPGQGLEWMGCINPKSGGAIYAQRFQGRVTMTRDTSFNTAYMEMNRLGSDDTAVYYCVTRGPPDIAASGFAWHLDVWGQGTTVTVSS VL: DIVMTQSPLSLPVTPGEPASISCRSSQSLLSSNGYNYLEWYLQKPGQSPQLLMYLGSNRASGVPDRFSGSGSGTDFTLKINRVEAEDVGVYYCMQALQTPLTFGGGTKVEIK |  |  |  | binding result [6]: no binding
antibody 443 (antibody, V domains shown) VH: QMRLEESGPGLVKPSETLSLTCTVAGGSITSSDYFWGWLRQSPGKGLEWIASTYHGGSIQYHPALKSRVTISVDASKNQISLRLSSVTAADTAVYYCARDRGDDGPMGTYYFDHWGQGALVTVSS VL: QSVLTQPPSVSGAPGQSVTISCAGSSSNIGAGHDVHWYQQIPGTAPKLLICGNTNRPSGVPERFSGSRSGTSASLAITGLQAEDEAVYYCQSYDPSHVFFGTGTKLTVL |  |  |  | binding result [6]: no binding

From patent publication US20210292393A1 (published 2021)
